The text below walks through data of patent US20140294731A1 (AC IMMUNE S A, published 2014).

The target in assay [1] is T1, T3.30: Biotin-LC linker-GVYKS[PO3H2]PVVSGDTS[PO3H2]PRHL-NH2 (reading uncertain; also: printed as Biotin-LC linker-GVYKS[PO3H2]PVVSGDTS[PO3H2]PRHL-NH2).
T1 construct: Human Tau 393-408 with an added N-terminal Gly; two lots used: MI89P9-P12-2 (64% pure) and MI89P9-P12-3 (87% pure); also called Phospho-tau peptide; phosphopeptide T3.30
T1 peptide: {Biotin-LC linker}-GVYK[pS]PVVSGDT[pS]PRHL-NH2
Nature of the assay: SPR (Biacore X), T3.30 on streptavidin chip, antibody injected, 1:1 Langmuir fit; peptide lot 87% pure. The method, then:
(§1) All SPR experiments were carried out on a Biacore X instrument (GE Healthcare). Sensor chip SA (Streptavidin derivatized carboxymethyl dextran) was purchased from GE Healthcare. Running buffer was PBS (Dulbecco's PBS, Sigma D8537). Non-covalently bound Streptavidin was firstly removed from the sensor surface by injecting 8 pulses (each ˜1 μL) of 16 mM NaOH (aq). Phospho-tau peptide was then solubilized in PBS to give a final peptide concentration of 1 μM and then injected (35 μL) over flow cell (fc) 2 of the sensor chip at 5 μl/min. After coupling, a final immobilization level of 130 RUs was obtained. To study the binding of the antibodies to the chip surface, several concentrations of antibodies were prepared by serial 2-fold dilutions with running buffer. The injections were performed over both fc 1 and 2 at a flow rate of 50 μL/min for 120 s. Flow cell 1 was not derivatized and responses of fc 1 were subtracted from fc 2 to correct for instrument noise and bulk refractive changes. After each injection, the surfaces were washed immediately with running buffer for 100s. To remove any remaining bound antibody from the chip, surface regeneration was performed by injecting 1 μL of 10 mM Glycine-HCl pH 1.7. Kinetic analyses were performed using algorithms for numerical integration and global analysis using BIAevaluation 3.0. The sensograms obtained for injections of antibody at different concentrations were overlaid and the baselines adjusted to zero. For curve fitting, all data were fit simultaneously to a 1:1 homogeneous (Langmuir) model.
(In general: Surface plasmon resonance follows binding to a sensor surface in real time, without labels.)

Assay [2] has as its target T2, non-phosphorylated Tau peptide T3.6: Tau393-408 (human).
T2 construct: Synthetic peptide (PolyPeptide Laboratories); also called non-phospho counterpart of the antigenic peptide; non-phospho-peptide
T2 peptide: VYKSPVVSGDTSPRHL
Nature of the assay: hybridoma supernatant ELISA screen (conclusion of Example 1). As to the method: (§2) Hybridomas ELISA screen was performed on pTau peptide (ACl-35, T3.5: Tau393-408[pS396/pS404; PolyPeptide Laboratories, Hillerød, Denmark), the corresponding non-phosphorylated Tau peptide (T3.6: Tau393-408, PolyPeptide Laboratories), phosphorylated full-length (441aa) Tau protein (pTau protein, Vandebroek et al., 2005) and full-length (441aa) Tau protein (Tau protein, SignalChem, Richmond, Canada). Finally Bovine Serum Albumin (BSA) was used as negative control.
(§3) Plates were coated with 10 μg/ml of corresponding Tau peptide and 1 μg/ml of corresponding Tau protein overnight at 4° C. After washing each well with PBS-0.05% Tween 20 and blocking with 1% BSA in PBS-0.05% Tween 20, undiluted hybridoma supernatant or medium negative control were added to the plates and incubated at 37° C. for 2 hours. After washing plates were incubated with an alkaline phosphatase (AP)-conjugated anti-mouse IgG total antibody (Jackson Laboratories, Baltimore, Pa., USA) for 2 hours at 37° C. After washing plates were incubated with pNPP (para-nitro-phenyl-phosphate), the phosphatase substrate for AP, and read at 405 nm using an ELISA plate reader. Results are expressed as O.D. (Optical Density).
On the technique in general: In an ELISA, binding on a coated surface is turned into a signal by an enzyme label.

The target in assay [3] is T3, pTau peptide T3.5: Tau393-408 [pS396/pS404] (human).
T3 construct: Synthetic peptide (PolyPeptide Laboratories), coated on ELISA plates at 10 µg/mL; also called Tau p-peptide; T3: Tau 393-408 [pS396, pS404]
T3 peptide: VYK[pS]PVVSGDT[pS]PRHL
The description is as above. As to the method: as §2, §3

The target in assay [4] is T1, T3.30: Biotin-LC …. Description: SPR (Biacore X), T3.30 on streptavidin chip, antibody injected, 1:1 Langmuir fit; peptide lot 64% pure. The method, then: as §1
In assay [5] the target is T4, full-length (441 aa) Tau protein (SignalChem) (human, UniProt P10636 1-758).
T4 construct: Bought recombinant protein; also called Full-length Tau; non-phospho full-length Tau protein
Nature of the assay: ELISA, plate-coated protein; grade (+ Good binding).

Assay [6] addresses T5, phosphorylated full-length (441 aa) Tau protein (human, UniProt P10636 1-758, phosphorylated; the sites are not stated (preparation cited as Vandebroek et al., 2005)).
T5 construct: Full-length 441 aa Tau; Coated at 1 µg/mL; also called pTau protein; Full-length pTau
Nature of the assay: ELISA, plate-coated protein.

The target of assay [7] is T4, full-length (441 aa) Tau protein …. Nature of the assay: ELISA, plate-coated protein.

Where no end group is shown, it is not given here. [ ]: non-standard residue; d: D form. The star is where a group is joined. Biotin = O=C1N[C@H]2[C@H](CS[C@H]2CCCCC(=O)*)N1; pS = N[C@@H](COP(=O)(O)O)C(=O)O; LC linker = not defined here

T4 sequence (P10636 other isoform, or with tags, fused parts or gaps limits assumed): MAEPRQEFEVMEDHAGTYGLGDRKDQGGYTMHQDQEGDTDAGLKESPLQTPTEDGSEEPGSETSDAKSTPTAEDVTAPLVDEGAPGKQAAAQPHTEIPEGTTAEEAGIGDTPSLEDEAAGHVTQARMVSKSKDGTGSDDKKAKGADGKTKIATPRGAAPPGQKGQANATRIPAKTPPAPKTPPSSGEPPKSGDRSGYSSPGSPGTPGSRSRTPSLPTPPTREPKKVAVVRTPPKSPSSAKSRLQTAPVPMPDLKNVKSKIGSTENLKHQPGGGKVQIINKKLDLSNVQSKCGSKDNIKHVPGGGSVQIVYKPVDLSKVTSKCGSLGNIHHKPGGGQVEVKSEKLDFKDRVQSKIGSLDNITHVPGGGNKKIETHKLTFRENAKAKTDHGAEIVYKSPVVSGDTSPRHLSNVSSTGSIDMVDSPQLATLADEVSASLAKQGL
T5 sequence (P10636 other isoform, or with tags, fused parts or gaps limits assumed): as above

B1: ACI-35-2A1-Ab1 (antibody, IgG2b, V domains shown)
VH: EVQLQQSGPELVKPGASVKISCKASGYTFTDYYMNWVKQSHGKSLEWIGDINPNNGGTSYNQKFKGKATLTVDKSSSTAYMELRSLTSEDSAVYYCVREGRFAYWGHGTLVTVSA
VL: DIVMTQAAPSVPVTPGESVSISCRSSKSLLHSNGNTYLYWFLQRPGQSPQLLIHRMSNLASGVPDRFSGSGSGTAFTLRISRVEAEDVGVYYCMQHLKSPYTFGGGTKLEIK
notes: Biotinylated (-BT) in the AlphaLISA and as detector in the Setup 1 ELISA; also called ACl-35-2A1-Ab1; hybridoma A4-2A1-18
What is called Kd is the free concentration of one partner at which half of the binding sites on the other are occupied at equilibrium, for simple one-to-one binding. The term koff denotes the first-order rate constant of dissociation. Lower therefore signals a long-lived complex. One may read the kon as the second-order rate constant of association. Read a low kon as slow association. In assay [1], B1 yielded a Kd of 38 nM, a koff of 0.001 s⁻¹ and a kon of 27000 M⁻¹ s⁻¹.

B2: ACI-35-2G5-Ab3 (antibody, IgG2b, V domains shown)
VH: EVQLQQSGPELVKPGASVKISCKASGFTFTDYYMNWVKQSHGKSLEWIGDINPNNGGTSYHQKFKGKATLTVDKSSSTAYMELRSLTSEDSAVYYCVREGRFAYWGQGTLVTVSA
VL: DIVMTQSQKFMSTSVGDRVSVTCKASQNVGTNVAWYQQKPGQSPKALIYSASYRYSGVPDRFTGSGSGTDFTLTISNVQSEDLAEYFCQQYNSYPYTFGGGTKLEIK
notes: Biotinylated (-BT) in the AlphaLISA and as detector in the Setup 1 ELISA; also called ACl-35-2G5-Ab3; ACl-35-2G5-AB3
In assay [1], B2 yielded a Kd of 2 nM, a koff of 3.8e-05 s⁻¹ and a kon of 17000 M⁻¹ s⁻¹.

B3: ACI-35-2G5-Ab2 (antibody, IgG2b, V domains shown)
VH: EVQLQQSGPELVKPGASVKISCKASGFTFTDYYMNWVKQSHGKSLEWIGDINPNNGGTSYHQKFKGKATLTVDKSSSTAYMELRSLTSEDSAVYYCVREGRFAYWGQGTLVTVSA
VL: DIVMTQSQKFMSTSVGDRVSVTCKASQNVGTNVAWYQQKPGQSPKALIYSASYRYSGVPDRFTGSGSGTDFTLTISNVQSEDLAEYFCQQYNSYPYTFGGGTKLEIK
notes: also called ACl-35-2G5-Ab2; ACl-35-2G5-AB2
As for B3, in assay [1], the dissociation constant Kd is 10 nM, the koff was found to be 0.00023 s⁻¹ and the kon was found to be 24000 M⁻¹ s⁻¹.

B4: ACI-35-4A6-Ab2 (antibody, V domains shown)
VH: EVQLQQSGPELVKPGASVKISCKASGYTFTDYYMNWVKQSHGKSLEWIGDINPNNGGTSYNQKFKGKATLTVDKSSSTAYMELRSLTSEDSAVYYCVREGRFAYWGHGTLVTVSA
VL: DIVMTQAAPSVPVTPGESVSISCRSSKSLLHSNGNTYLYWFLQRPGQSPQLLIYRMSNLASGVPDRFSGSGSGTAFTLRISRVEAEDVGVYYCMQHLKSPYTFGGGTKLEIK
notes: also called ACl-35-4A6-Ab2; hybridoma A4-4A6-48
Turning to B4, the binding result in assay [2] and in assay [3] was “binds” throughout.

B5: ACI-35-1D2-Ab1 (antibody, IgG2a, V domains shown)
VH: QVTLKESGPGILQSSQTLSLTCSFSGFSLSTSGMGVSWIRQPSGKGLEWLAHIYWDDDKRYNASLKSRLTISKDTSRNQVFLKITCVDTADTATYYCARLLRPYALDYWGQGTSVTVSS
VL: NILMTQSPSSLAVSAGEKVTMSCKSSQSVLYSSNQKNYLAWYQQKPGQSPKLLIYWASTRESGVPDRFTGSGSGTDFTLTISSVQAEDLAVYYCLQYLSSLTFGAGTKLELK
notes: Biotinylated (-BT) in the AlphaLISA; also called ACl-35-1D2-Ab1; hybridoma A6-1D2-12
As for B5, in assay [4], the Kd was at most 6 nM, the koff came out at 9.3e-06 s⁻¹ and the kon was 1600 M⁻¹ s⁻¹. Further, in assay [1], the Kd came out at 82 nM, the koff came to 0.0018 s⁻¹ and the kon was found to be 22000 M⁻¹ s⁻¹.

B6: ACI-35-4A6-Ab1 (antibody, IgG2b, V domains shown)
VH: QVQLQQPGAELLKPGASVKLSCKASGYTFTSYWMHWVKQRPGRGLEWIGRIDPNSDRTKYNEKFKRKATLTVDKSSSTAYMQLSSLTSEDSAVYYCARDDYAWFAYWGQGTLVTVSA
VL: DVLMTQTPLSLPVSLGDQASISCRSSQSIVHSNGNTYLEWYLQKPGQSPKLLIYKLSNRFSGVPDRFSGSGSGTDFTLKISRVEAEDLGVYYCFQGSHVPPTFGGGTKLEIK
notes: also called ACl-35-4A6-Ab1; hybridoma A4-4A6-18
For B6, the binding result in assay [5] was “binds”. In assay [4], this molecule came in with a Kd of 16 nM, a koff of 0.0031 s⁻¹ and a kon of 200000 M⁻¹ s⁻¹. In assay [1], this molecule returned a Kd of 15 nM, a koff of 0.0017 s⁻¹ and a kon of 110000 M⁻¹ s⁻¹.

B7: ACI-35-2G5-Ab1 (antibody, IgG2a, V domains shown)
VH: QVQLKQSGAELVRPGASVKLSCKASGYTFTDYYINWVKQRPGQGLEWIARIYPGRGNIYYNEKFKGKATLTAEKSSSTAYMQLSSLTSEDSAVYFCARFWDVTYWGQGTLVTVSA
VL: DVLMTQTPLSLPVSLGDQASISCRSSQSIVHSNGNTYLEWFLQKPGQSPKLLIYKVSNRFSGVPDRFSGSGSGTDFTLKISRVEAEDLGVYYCFQGSHVPYTFGGGTKLEIK
notes: also called ACl-35-2G5-Ab1; ACl-35-2G5-AB1
With B7, the binding result in assay [6] was “no binding (tested: up to 20 µg/mL antibody)”. In addition, in assay [7], the binding result is given as “no binding (tested: up to 20 µg/mL antibody)”. In assay [4], this molecule came in with a Kd of 10 nM, a koff of 0.0053 s⁻¹ and a kon of 480000 M⁻¹ s⁻¹. In assay [1], this molecule had a Kd of 70 nM, a koff of 0.0022 s⁻¹ and a kon of 32000 M⁻¹ s⁻¹.
